For this test, the target named is T1, MtSteBΔTM (M. tuberculosis SteB devoid of its TM domain, residues 38-314) (Mycobacterium tuberculosis, UniProt P9WJ83 38-314).
T1 construct: Homodimer in both crystal structures; also called Rv1698; MctB; not shown: 6xHis-SUMO, N-terminal, cleaved
The experiment in a line: BLI; biotinylated MtRipACC immobilised on streptavidin biosensors; 25°C; 25 mM HEPES pH 7.5, 150 mM NaCl, 5% glycerol, BSA 1 mg/mL, 0.05% Tween 20; steady-state signal versus concentration, one-site binding model; apparent Kd. To be noted: both partners purified. On the technique in general: Biolayer interferometry detects binding as a change in optical thickness at a sensor tip.

B1: MtRipACC (coiled-coil domain of M. tuberculosis RipA, residues 40-240) (domain or fragment)
chain: DPQTDTIAALIADVAKANQRLQDLSDEVQAEQESVNKAMVDVETARDNAAAAEDDLEVSQRAVKDANAAIAAAQHRFDTFAAATYMNGPSVSYLSASSPDEIIATVTAAKTLSASSQAVMANLQRARTERVNTESAARLAKQKADKAAADAKASQDAAVAALTETRRKFDEQREEVQRLAAERDAAQARLQAARLVAWSSE
modifications: biotinylated with EZ-Link NHS-PEG4-Biotin (20 molar excess) for the BLI assays
notes: also called RipA coiled-coil (CC) domain; MtRipA CC domain; not shown: 6xHis-SUMO, N-terminal, cleaved
For B1, the Kd is 42.6 ± 4.4 µM.

The record behind these values is publication doi:10.1101/2025.06.28.662095, “Mechanistic insights into the allosteric regulation of cell wall hydrolase RipA in Mycobacterium tuberculosis” (bioRxiv, 2025).
